From the supplement of paper PMC9170038

Test system: MS2 coat protein
Test: apparent KD of MS2 coat protein; designed switch direction (-1 OFF switch, 1 ON switch): -1; higher = weaker reporter binding
Procedure, shortened: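 Apparent KD, taken as the median over clusters for each design, was obtained by curve-fitting normalised cluster fluorescence. Designed RNA switches had been transcribed on Illumina chips by stalled E. coli RNA polymerase and titrated with SNAP-549-labelled MS2 coat protein, doubling from 0.7 or 1.5 nM to 3 µM.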

[1] = Eterna round: R95, input ligand: microRNA oligo, concentration not stated
[2] = input ligand: microRNA oligo, concentration not stated
[3] = Eterna round: R95, input ligand: FMN 200 uM
[4] = Eterna round: R95, input ligand: none

Row | Sequence | apparent KD of MS2 coat protein [1] [nM] | apparent KD of MS2 coat protein (input ligand: FMN 200 uM) [nM] | apparent KD of MS2 coat protein [2] [nM] | apparent KD of MS2 coat protein (input ligand: none) [nM] | apparent KD of MS2 coat protein [3] [nM] | apparent KD of MS2 coat protein [4] [nM]
1 | GCGCACUAAGUGAGGAUAUCGUUUAUUUAUAGGAUCGAGAAGGCACAUGAGGAUCACCCAUGUUAAACGUGCGC [JR_BMOE4_Sub100] (puzzle: Brourd's mod of Exclusion 4) | 15.7 | – | – | – | – | –
2 | GGAGAGUCAGGAUAUACAUGAGGAUCACCCAUGUUGGAAAGUGGAGGGACGGGAGUCCGUAGAAGGGACGAGAG [Identicality] (puzzle: Exclusion 3) | 27.7 | – | – | – | – | –
3 | CACAUGGGAACAUGAGGAUCACCCAUGUGAUAGAAAGGUAUGGAGGAUAUCAUACCAUCGCCGUGUGAGAAGGUCAGGCCAACA [Eternabot solution 46] (Eterna round: R96, puzzle: Exclusion NG 3) | – | 409 | 151 | 388 | – | –
4 | GAUCGUUUAGAGGAUAUCAUGCUAAACAUUACAUGAGAAGGCUAGACAUGAGGAUCACCCAUGUAUGCUCGUGA [Exclusion 6 - 9:a] (puzzle: Exclusion 6) | 14 | – | – | – | 20.8 | 14.8
5 | GCACGGAAUGCAGGAUAUCUGUGCGAUUAGCUCAGAGAAGGGCACAUGAGGAUCACCCAUGUGUAUAAAACACAAAAUCCGUGC [Eli exng1 - 067] (Eterna round: R96, puzzle: Exclusion NG 1) | – | 13.5 | 7.71 | 13.8 | – | –
6 | CGGUGUAACAGAGGAUAUGAGCGCAACUGACGAUCAGAAGGCUGACAUGAGGAUCACCCAUGUGAUUUCUCAAUAUUAUACAUC [Prohibition 89 - Jieux - Exclusion NG 1] (Eterna round: R96, puzzle: Exclusion NG 1) | – | 34.2 | 324 | 153 | – | –
7 | GGAUCGAGUGUGAGGAUAUACCUAUGGAUACAUAGGUAGAAGGCACAUGAGGAUCACCCAUGUUCCUACGGUCC [Eli bmx4 4.08] (Eterna round: R97, puzzle: Brourd's mod of Exclusion 4) | – | 713 | – | 62.3 | – | –
8 | UUCUUUAUACGAGGAUAUCAUACAUGAGGAUCACCCAUGUAACUGGGUCUAUUUUUAUAUAAUAUUGAGAAGGCGUUUUGCUAU [JR_ExcNG2_Sub071] (Eterna round: R96, puzzle: Exclusion NG 2) | – | 52.6 | 31.1 | 36.8 | – | –
9 | CACCGUUACGUAGGAUAUAGUACAUGAGGAUCACCCAUGUAAUAAAUGAGAAUUUCGGAUGUAUGCUAGAAGGACGAAAUCGGC [Ostricism 50 - Jieux - Exclusion NG 2] (Eterna round: R96, puzzle: Exclusion NG 2) | – | – | 39.9 | – | – | –
10 | AGCCUACAUGAGGAUCACCCAUGUCAGGAUAUCUCGCGACAUGUCAAGUUCACGUUGCAGAGAAGGGACUCGGG [Ononxe] (puzzle: Exclusion 1) | 47.8 | – | – | – | – | –
11 | GCGGAUUAUGUAGGAUAUCGGUCAGUUUCUGAUCGAGAAGGACAUGAGGAUCACCCAUGUAAAUUGCCCGCUUUGUGGGUCCGC [JL ENG1 3.62] (Eterna round: R96, puzzle: Exclusion NG 1) | – | 41.7 | 15 | 15.7 | – | –
12 | UAUAUAUAGUAAGGAUAUGUAUCUAUUUUAUAAACAGAAGGUACUGACAUGAGGAUCACCCAUGUUUUAGUGUGGGCAUGUAGA [JMF's solution 8] (Eterna round: R96, puzzle: Exclusion NG 1) | – | – | 71.6 | – | – | –
13 | GUGUAACUACACGGGCUCAACAUGAGGAUCACCCAUGUCAUACACGCAAGCUUUUUGCUUGUCUUAUCUGUCCGUGA [Raenzama] (puzzle: Sensor v3, turn-off variant 1) | 13.5 | – | – | – | 12.1 | 10.4
14 | UCGCUGCGAGGAUAUACGUGCGCGCGCUCGCGUUCGCGCGUACAUGAGGAUCACCCAUGUAGAAGGCGCGCUGC [Apr-15 SS2-5] (puzzle: Exclusion 2) | 11.1 | – | – | – | – | –
15 | CCGUUGCUAGGAUAUACAUGAGGAUCACCCAUGUUUGAUCCAGCGAGUCAAUCCGCUUGUAGAAGGAGUUACAC [EX3 C.9] (Eterna round: R97, puzzle: Exclusion 3) | – | 25.3 | – | 26.4 | – | –
16 | AAGAAACAUGAGGAUCACCCAUGUGAGGAUAUGAAAAAGAAAAGAAAAGAAAGAAGGGUCAGAAGGCACAAAGG [salish99-ex1_r3_028] (puzzle: Exclusion 1) | 25.3 | – | – | – | 24 | 35.5
17 | GUGGUACAUGAGGAUCACCCAUGUCAGGAUAUCGUGUGUUUUUUUUCGGCCGCGCGCGCGAGAAGGGACGUCUU (puzzle: Exclusion 1) | 16.8 | – | – | – | – | –
18 | UUAUUGCAAGCAAGAUCCCACAUGAGGAUCACCCAUGUGCUCGUCUUAUAAGGUACUGUGACGAAAGUCACGGUACC [Sensor 3, v1 - 99] (puzzle: Sensor v3, turn-off variant 1) | 462 | – | – | – | 26 | 30.6

Row | Sequence | apparent KD of MS2 coat protein [1] [nM] | apparent KD of MS2 coat protein (input ligand: FMN 200 uM) [nM] | apparent KD of MS2 coat protein [2] [nM] | apparent KD of MS2 coat protein (input ligand: none) [nM] | apparent KD of MS2 coat protein [3] [nM] | apparent KD of MS2 coat protein [4] [nM]
19 | UUUAAUUUUUUUUUUUUACAAGCUUUUUGCUCGUCUUAUACAUGAGGAUCACCCAUGUGAAUGGGAAAUGAAUUAUC [JMF 96] (puzzle: Sensor v3, turn-off variant 2) | 268 | – | – | – | 112 | 132
20 | GUGUUGUAUGUAGGAUAUGCAUACUGUUAGUAUGCAGAAGGACAUGAGGAUCACCCAUGUAUAUUAUUAUUAUAUAUCAUACAU [MOD of Hoglahoo's Title] (Eterna round: R96, puzzle: Exclusion NG 1) | – | – | 15.2 | – | – | –
21 | CUGAGCUGAGGAUAUACAUGAGGAUCACCCAUGUGGGCCUGCGAGGUUACUUGCACAUGUAGAAGGCAGUUCGG [Extended Mod of JL - ex3-3.35 Brourd mod] (puzzle: Exclusion 3) | 74.4 | – | – | – | – | –
22 | UUUUUGUGAGGAUAUCAGUAGUAGAACAAUAGUACUACUACUGAGAAGGCACAUGAGGAUCACCCAUGUUUCUC [Fiskers Ex 4 Super stable 44 mod 10] (puzzle: Exclusion 4) | 43.3 | – | – | – | – | –
23 | GGCAUCGGAGGAUAUACUAAUGGUGAUGCCCGAAGCUUUCUACUUGAGGAUCACCCAAGUAGAAGGCCGAUGCC [jl-ex2.4.80 ViennaUCT mod] (Eterna round: R97, puzzle: Exclusion 2) | – | 11 | – | 13.1 | – | –
24 | AGGACGAUAGGAUAUACAUGAGGAUCACCCAUGUGCAUAAGAAUAUGCCAAUCCACGCGUAGAAGGAUCAUAAU [Eternabot (Original) Solution 11] (Eterna round: R97, puzzle: Exclusion 3) | – | 65.4 | – | 28.1 | – | –
25 | ACAUGAGGAUCACCCAUGUGACAAUAAUGGCUGAUACAGAGACAGGAUAUAGGUGAAUAUCUAACCUAGAAGGGUCAUGACUGG [Deportation 71 - Jieux - Exclusion NG 3] (Eterna round: R96, puzzle: Exclusion NG 3) | – | 34.8 | 33 | 54 | – | –
26 | CCGGAACAUGAGGAUCACCCAUGUCAGGAUAUUCCAAAAUCGUCGAUAGACGAUAACAGGAGAAGGGACACCGG [Mat - Exclusion 1 - Eli Mod - D30] (Eterna round: R97, puzzle: Exclusion 1) | – | 20.4 | – | 15.7 | – | –
27 | CUGGUCCGAGGAUAUAUUUUGUGAAACAUGAGGAUCACCCAUGUAAUAAAAUGGAUAUAAAUAGAAGGCGGACUAG [Mat - Exclusion 5 - JL mod - D41] (puzzle: Exclusion 5) | 21 | – | – | – | 25.1 | 18.1
28 | AUAGAGUCAGGAUAUUGCGCAGUGGACAUGAGGAUCACCCAUGUGAACUUCGUACCGGGCCAAGAAGGGACGGAAA [Onedra] (puzzle: Exclusion 5) | 21.5 | – | – | – | 96.6 | 31.1
29 | GCCGGAUUUGUGAGGAUAUACCUAUGGAUACAUAGGUAGAAGGCACAUGAGGAUCACCCAUGUACCUCUCCGGC [JL-BMX4-4.19 Eli mod] (Eterna round: R97, puzzle: Brourd's mod of Exclusion 4) | – | 91.9 | – | 19.5 | – | –
30 | CAGUACUGAGGAUAUACAUGAGGAUCACCCAUGUGCUUCAGCUAGGAUACUAGCAUUAGUAGAAGGCAGUACUG [Fiskers Ex 3 828 mod 13] (puzzle: Exclusion 3) | 11.3 | – | – | – | – | –
31 | AGCUAGUCAGGAUAUUCUAAUGAUUACAUGAGGAUCACCCAUGUGAAUGGACAAGGGUGUGAAGAAGGGACUAGCG [Omei Ex5 A10] (Eterna round: R97, puzzle: Exclusion 5) | – | 426 | – | 4030 | – | –
32 | AGUGCUGCAGGAUAUUCUAUUAAUUACAUGAGGAUCACCCAUGUGAAUGGACAAGGGUGUGAAGAAGGGUGGUACG [Omei Ex5 A17i] (Eterna round: R97, puzzle: Exclusion 5) | – | 262 | – | 496 | – | –
33 | ACAUGACCGCUAGGAUAUAGAUGACAUGAGGAUCACCCAUGUUGUCCCAUGUUGACGAUCACCGACUAGAAGGAGCCACCCAUG [ExNG2 5th] (Eterna round: R96, puzzle: Exclusion NG 2) | – | 53.4 | 34.6 | 52.5 | – | –
34 | GCCUGUGCCCUAGGAUAUCGCCCAGCCAAUGGAUGAGAAGGAGGCGGGUGAAACAUGAGGAUCACCCAUGUAAACGCACAAGCA [Inusri] (Eterna round: R96, puzzle: Exclusion NG 1) | – | 102 | 14.5 | 22.7 | – | –
35 | CGUAGACAUGAGGAUCACCCAUGUGAGGAUAUGCUUUUUUAUUAGAAAUGGUGGAGGAGCAGAAGGCACGUGCG [-21.6, -21.5 kcal, 28% A] (Eterna round: R97, puzzle: Exclusion 1) | – | 160 | – | 59.7 | – | –
